Laboratory results: publication PMC4610628 (Immunology, 2015)
Where “and” joins values, the source holds several entries; their conditions need not be identical. Equal entries are not always repeated. Square brackets hold non-standard residues; d marks the D form. Ends that are not written are not given here. * marks the point of attachment. Biotin = O=C1N[C@H]2[C@H](CS[C@H]2CCCCC(=O)*)N1; pY = N[C@@H](Cc1ccc(OP(=O)(O)O)cc1)C(=O)O

T1: signalling lymphocyte activation molecule-associated protein (SAP), full length, recombinant human (human, UniProt O60880 1-128)
T1 construct: SAP (SH2D1A), human, full length recombinant protein; called 'soluble monomeric recombinant human SAP' in the results; also called SH2D1A; source: recombinant, produced in-house and purified on the day of the experiment
T1 sequence (looked up): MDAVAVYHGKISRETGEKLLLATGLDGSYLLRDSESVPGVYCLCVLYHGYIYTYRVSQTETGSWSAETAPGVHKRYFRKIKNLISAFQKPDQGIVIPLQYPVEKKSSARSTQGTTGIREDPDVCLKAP

T2: SHIP SH2 domain from SHIP-1, recombinant human (human, UniProt Q92835 5-101)
T2 construct: SH2 domain of the inositol phosphatase SHIP-1, human; source: recombinant, produced in-house and purified on the day of the experiment
T2 sequence (looked up): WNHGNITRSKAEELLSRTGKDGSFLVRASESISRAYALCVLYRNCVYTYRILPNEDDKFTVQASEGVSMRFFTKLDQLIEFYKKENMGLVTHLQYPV

B1: signalling lymphocyte activation molecule-associated protein (SAP), full length, recombinant human (natural protein)
chain: T1 sequence (looked up)
B2: CD229M phosphopeptide (CD229 ITSM1, Met602 variant) (peptide)
peptide: Biotin-GENTM[pY]AQVFN
notes: CD229 (Ly9, SLAMF3), human, first (membrane proximal) ITSM, natural variant Met602 of SNP rs509749; also called CD229 Met602 ITSM; TMpYAQV; source: synthetic peptide; bought: Peptide Protein Research Ltd
B3: CD229V phosphopeptide (CD229 ITSM1, Val602 variant) (peptide)
peptide: Biotin-GENTV[pY]AQVFN
notes: CD229 (Ly9, SLAMF3), human, first (membrane proximal) ITSM, natural variant Val602 of SNP rs509749; also called CD229 Val602 ITSM; TVpYAQV; source: synthetic peptide; bought: Peptide Protein Research Ltd
B4: CD244-ITSM1 phosphopeptide (peptide)
peptide: Biotin-EFLTI[pY]EDVKD
notes: CD244 (2B4, SLAMF4), human, ITSM1; source: synthetic peptide; bought: Peptide Protein Research Ltd
B5: CD244-ITSM2 phosphopeptide (peptide)
peptide: Biotin-GGSTI[pY]SMIQS
notes: CD244 (2B4, SLAMF4), human, ITSM2; source: synthetic peptide; bought: Peptide Protein Research Ltd
B6: FcγRIIb-ITIM phosphopeptide (peptide)
peptide: Biotin-ADKVGAENTIT[pY]SLLMHPDA
notes: FcγRIIb, human, ITIM; source: synthetic peptide; bought: Peptide Protein Research Ltd

Columns and labels:
[1] = biological target: CD229 more distal ITSM phosphopeptide (TIpYCS) (human); assay: SPR; data not shown; SAP on tyrosine phosphorylated CD229 distal ITSM peptide, 37°C, n = 3
[2] = biological target: T1, signalling lymphocyte activation …; assay: SPR; BIAcore 3000; biotinylated phosphopeptides immobilised on a streptavidin-coated CM5 chip (~30 RU), purified recombinant protein passed over; 37°; 10 mM HEPES pH 7·4, 150 mM KCl, 10 mM EDTA, 0·005% Tween 20; equilibrium data, one-site binding curve; conditions: both partners purified
[3] = biological target: T2, SHIP SH2 domain from SHIP-1, …; assay: as above; conditions: both partners purified

Binder | Kd [1] [µM] | Kd [2] | Kd [3]
B1 | 0.1 | – | –
B2 | – | 1.7 µM and 1.5 to 2 µM | 23 to 92 µM and > 50 µM
B3 | – | 3.4 µM and 2.8 µM and 4.4 µM | 100 µM and 82 to 110 µM
B4 | – | – | 25 µM
B5 | – | – | 2.4 µM
B6 | – | – | 0.36 µM
